Test results published in patent publication US9296810 (Novartis, dated 2016).
Changes are numbered by the printed parent chain.

B1: SEQ ID NO 55 (designed binder)
chain: VSDVPRDLEVVAATPTSLLISWDAPAVTVRYYRITYGEGQGAGASQEFTVPGSKSTATISGAEPAVDYTITVYAVTGRGESPASSKPISINYGPRY
B2: SEQ ID NO 56 (designed binder)
chain: VSDVPRDLEVVAATPTSLLISWDAPAVTVRYYRITYGEYLYHHGQEFTVPGSKSTATISYRSAPVDYTITVYAVTGRGESPASSKPISINYRHER
B3: SEQ ID NO 57 (designed binder)
chain: VSDVPRDLEVVAATPTSLLISWDAPAVTVRYYRITYGEGSLLYHSQEFTVPGSKSTATISYGPASVDYTITVYAVTGRGESPASSKPISINYRRRY
B4: SEQ ID NO 58 (designed binder)
chain: VSDVPRDLEVVAATPTSLLISWDAPAVTVRYYRITYGESSHGRSQEFTVPGSKSTATISSSSSRVDYTITVYAVTGRGESPASSKPISINYGYRG
B5: SEQ ID NO 59 (designed binder)
chain: B4 chain with S39Y, S40G, H41Y, G42S, S60Y, S63P, Y93S, G95Y
B6: SEQ ID NO 60 (designed binder)
chain: VSDVPRDLEVVAATPTSLLISWDAPAVTVRYYRITYGEYRYAYAYGQEFTVPGSKSTATISRSSPRVDYTITVYAVTGRGESPASSKPISINYPRRY
B7: SEQ ID NO 61 (designed binder)
chain: VSDVPRDLEVVAATPTSLLISWDAPAVTVRYYRITYGEPRSEEGEQEFTVPGSKSTATISRRYSLVDYTITVYAVTGRGESPASSKPISINYYSSR
B8: SEQ ID NO 62 (designed binder)
chain: VSDVPRDLEVVAATPTSLLISWDAPAVTVRYYRITYGEAASSRLRQEFTVPGSKSTATISSYSGLVDYTITVYAVTGRGESPASSKPISINYYSSY
B9: SEQ ID NO 63 (designed binder)
chain: VSDVPRDLEVVAATPTSLLISWDAPAVTVRYYRITYGERERQHGYQEFTVPGSKSTATISRYRRRVDYTITVYAVTGRGESPASSKPISINYEPGY
B10: SEQ ID NO 64 (designed binder)
chain: VSDVPRDLEVVAATPTSLLISWDAPAVTVRYYRITYGERRSHRERQEFTVPGSKSTATISRRRRRVDYTITVYAVTGRGESPASSKPISINYSRRR
B11: SEQ ID NO 65 (designed binder)
chain: VSDVPRDLEVVAATPTSLLISWDAPAVTVRYYRITYGERLREGGSQEFTVPGSKSTATISRAGERVDYTITVYAVTGRGESPASSKPISINYAQYP
B12: SEQ ID NO 66 (designed binder)
chain: VSDVPRDLEVVAATPTSLLISWDAPAVTVRYYRITYGEYYRSYYQEFTVPGSKSTATISSYEPPVDYTITVYAVTGRGESPASSKPISINYRRYL
B13: SEQ ID NO 80 (designed binder)
chain: B12 chain with Y39S, Y40R, Y44P, Y61S, E62H, P63R, P64S, R93S
B14: SEQ ID NO 67 (designed binder)
chain: VSDVPRDLEVVAATPTSLLISWDAPAVTVRYYRITYGEYYARPEYQEFTVPGSKSTATISYYEPEVDYTITVYAVTGRGESPASSKPISINYRSYP
B15: SEQ ID NO 69 (designed binder)
chain: VSDVPRDLEVVAATPTSLLISWDAPAVTVRYYRITYGEYRSSSYYQEFTVPGSKSTATISYPSERVDYTITVYAVTGRGESPASSKPISINYQSSA
B16: SEQ ID NO 70 (designed binder)
chain: VSDVPRDLEVVAATPTSLLISWDAPAVTVRYYRITYGESHQGLSYQEFTVPGSKSTATISPGSSSVDYTITVYAVTGRGESPASSKPISINYRYYR
B17: SEQ ID NO 71 (designed binder)
chain: VSDVPRDLEVVAATPTSLLISWDAPAVTVRYYRITYGERGSGLGYQEFTVPGSKSTATISSRAYRVDYTITVYAVTGRGESPASSKPISINYALYE
B18: SEQ ID NO 72 (designed binder)
chain: VSDVPRDLEVVAATPTSLLISWDAPAVTVRYYRITYGERGGYSSQEFTVPGSKSTATISSRYRQVDYTITVYAVTGRGESPASSKPISINYQSYS
B19: SEQ ID NO 73 (designed binder)
chain: VSDVPRDLEVVAATPTSLLISWDAPAVTVRYYRITYGERGYPGQEFTVPGSKSTATISEYSHSVDYTITVYAVTGRGESPASSKPISINYAQYQ
B20: SEQ ID NO 74 (designed binder)
chain: VSDVPRDLEVVAATPTSLLISWDAPAVTVRYYRITYGEYEPYGSQYQEFTVPGSKSTATISERQHAVDYTITVYAVTGRGESPASSKPISINYRRYE
B21: SEQ ID NO 75 (designed binder)
chain: VSDVPRDLEVVAATPTSLLISWDAPAVTVRYYRITYGEYGGSQAQEFTVPGSKSTATISREYGSVDYTITVYAVTGRGESPASSKPISINYALGE
B22: SEQ ID NO 76 (designed binder)
chain: VSDVPRDLEVVAATPTSLLISWDAPAVTVRYYRITYGESSGRYRQEFTVPGSKSTATISRYPHGVDYTITVYAVTGRGESPASSKPISINYAKNV
B23: SEQ ID NO 77 (designed binder)
chain: B12 chain with Y40R, S42R, Y43A, Y44R, S60E, Y61H, P64L, R92Y, R93S, L95Y
B24: SEQ ID NO 78 (designed binder)
chain: VSDVPRDLEVVAATPTSLLISWDAPAVTVRYYRITYGEQRARSRQEFTVPGSKSTATISEQRRRVDYTITVYAVTGRGESPASSKPISINYRALL
B25: SEQ ID NO 79 (designed binder)
chain: VSDVPRDLEVVAATPTSLLISWDAPAVTVRYYRITYGERRRRYGQEFTVPGSKSTATISSRSRGVDYTITVYAVTGRGESPASSKPISINYLYPY
B26: SEQ ID NO 81 (designed binder)
chain: VSDVPRDLEVVAATPTSLLISWDAPAVTVRYYRITYGESHHYGPQEFTVPGSKSTATISLLGAHVDYTITVYAVTGRGESPASSKPISINYHGLY
B27: SEQ ID NO 83 (designed binder)
chain: VSDVPRDLEVVAATPTSLLISWDAPAVTVRYYRITYGEAHEYYYQEFTVPGSKSTATISRSSSSVDYTITVYAVTGRGESPASSKPISINYYGRY
B28: SEQ ID NO 84 (designed binder)
chain: VSDVPRDLEVVAATPTSLLISWDAPAVTVRYYRITYGEAGYSGGQEFTVPGSKSTATISERAEYVDYTITVYAVTGRGESPASSKPISINYERRY
B29: SEQ ID NO 85 (designed binder)
chain: B28 chain with A39L, G40S, Y41R, G44S, E60G, R61S, A62Y, E63G, R93Q, R94S
B30: SEQ ID NO 86 (designed binder)
chain: VSDVPRDLEVVAATPTSLLISWDAPAVTVRYYRITYGELPSQGRQEFTVPGSKSTATISYRRELVDYTITVYAVTGRGESPASSKPISINYGSSY
B31: SEQ ID NO 7 (designed binder)
chain: VSDVPRDLEVVAATPTSLLISWDAPAVTVRYYRITYGKTEGHRHSHEFTVPGSKSTATISGLKHGDDYTITVYAVTGRGDSPASSKPISINYRMEK
B32: SEQ ID NO 9 (designed binder)
chain: VSDVPRDLEVVAATPTSLLISWDAPAVTVRYYRITYGQLDKKHHDAEFTVPGSKSTATITRLKRGRDYTITVYAVTGRGDSPASSKPISINYSPER
B33: SEQ ID NO 10 (designed binder)
chain: VSDVPRDLEVVAATPTSLLISWDAPAVTVRYYRITYGKTGHKSSDHEFTVPGSKSTATIGGMKGGVDYTITVYAVTGRGDSPASSKPISINYRFER
B34: SEQ ID NO 11 (designed binder)
chain: VSDVPRDLEVVAATPTSLLISWDAPAVTVRYYRITYGKKDRASHLKEFTVPGSKSTATIGHIKGGYDYTITVYAVTGRGDSPASSKPISINYSGEP
B35: SEQ ID NO 12 (designed binder)
chain: VSDVPRDLEVVAATPTSLLISWDAPAVTVRYYRITYGRTKGKSKLKEFTVPGSKSTATIPGLKQGEDYTITVYAVTGRGDSPASSKPISINYMFER
B36: SEQ ID NO 13 (designed binder)
chain: VSDVPRDLEVVAATPTSLLISWDAPAVTVRYYRITYGTSVDDRKLREFTVPGSKSTATISRLKRGRDYTITVYAVTGRGDSPASSKPISINYRAEN
B37: SEQ ID NO 14 (designed binder)
chain: VSDVPRDLEVVAATPTSLLISWDAPAVTVRYYRITYGVLSSTKHLKEFTVPGSKSTATISGLKLGRDYTITVYAVTGRGDSPASSKPISINYRMES
B38: SEQ ID NO 15 (designed binder)
chain: B36 chain with T38S, S39R, V40A, D41S, D42H, R46T, R61G, R64T, A94T, N96H
B39: SEQ ID NO 16 (designed binder)
chain: VSDVPRDLEVVAATPTSLLISWDAPAVTVRYYRITYGITGKEKSFVEFTVPGSKSTATIRDVKKGKDYTITVYAVTGRGDSPASSKPISINYRAET

These binders were tested against T1, hen egg white lysozyme (hen, UniProt P00698 19-147, biotinylated (HEL-b); sites not stated) (assay: yeast display selection).
T1 construct: also called lyzozyme; HEL-b (biotinylated)
T1 sequence (P00698 19-147 limits assumed): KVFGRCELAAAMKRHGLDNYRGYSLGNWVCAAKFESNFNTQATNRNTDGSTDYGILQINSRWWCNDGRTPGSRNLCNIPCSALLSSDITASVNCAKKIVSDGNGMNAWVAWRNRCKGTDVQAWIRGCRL

Binding result, binds:
B1
B2
B3
B4
B5
B6
B7
B8
B9
B10
B11
B12
B13
B14
B15
B16
B17
B18
B19
B20
B21
B22
B23
B24
B25
B26
B27
B28
B29
B30

These binders were tested against Human Serum Albumin (HSA) (human, UniProt P02768 25-609) (assay: yeast display selection).
Human Serum Albumin (HSA), sequence (P02768 25-609 limits assumed): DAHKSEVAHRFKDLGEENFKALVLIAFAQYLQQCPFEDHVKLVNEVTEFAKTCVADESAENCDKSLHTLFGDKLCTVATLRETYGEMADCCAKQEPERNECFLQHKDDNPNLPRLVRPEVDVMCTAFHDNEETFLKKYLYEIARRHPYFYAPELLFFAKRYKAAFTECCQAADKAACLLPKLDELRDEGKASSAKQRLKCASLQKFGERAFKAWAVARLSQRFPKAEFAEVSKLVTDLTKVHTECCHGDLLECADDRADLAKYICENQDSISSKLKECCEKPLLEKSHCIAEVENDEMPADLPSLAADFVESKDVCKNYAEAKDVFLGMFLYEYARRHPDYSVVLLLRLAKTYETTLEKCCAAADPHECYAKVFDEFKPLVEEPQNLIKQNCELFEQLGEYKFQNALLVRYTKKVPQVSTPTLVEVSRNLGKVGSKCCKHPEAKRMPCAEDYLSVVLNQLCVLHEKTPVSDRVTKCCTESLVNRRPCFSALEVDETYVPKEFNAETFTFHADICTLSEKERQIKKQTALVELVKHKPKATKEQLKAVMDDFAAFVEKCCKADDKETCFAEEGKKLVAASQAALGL

Binding result, binds:
B31
B32
B33
B34
B35
B36
B37
B38
B39
